From US11278600B2, “Human alpha-galactosidase variants” (Codexis, Inc., priority 2014, dated 2022) come the findings set out here.

What all share (assay type): biochemical
Data set [1] is described as follows: HTP-analysis of supernatants pretreated with base (MUGal hydrolysis). The note with it: activity of the variant/activity of Rd7BB (SEQ ID NO: 44); challenge at pH 7.5. A digest of the protocol:
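GLA variants secreted from yeast INVSc1; culture supernatants pre-incubated with McIlvaine buffer pH 7.0–8.2 or 200 mM bicarbonate pH 9.1–9.7 at 37° C. for 1–18 h. Residual activity: MUGal (4 mM stock) hydrolysis at pH 4.3–4.8, 37° C., 30–180 min, carbonate quench; fluorescence Ex 355/Em 448 nm.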

A short description of data set [2]: HTP-analysis of supernatants pretreated with acid (MUGal hydrolysis). The note with it: activity of the variant/activity of Rd7BB (SEQ ID NO: 44); challenge at pH 3.5. A digest of the protocol: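 Yeast INVSc1 supernatant, GLA variants; acid challenge: McIlvaine pH 3.3-4.3, 37° C., 1-3 h. Assay: MUGal in McIlvaine pH 4.8 plus citrate pH 4.3, 37° C., 30-180 min, Na2CO3 stop, Ex 355/Em 448 nm.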

Data set [3] is described as follows: HTP-analysis of yeast culture supernatants, no challenge (MUGal hydrolysis). Particulars: activity of the variant/activity of Rd7BB (SEQ ID NO: 44). The method in brief:
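Activity read as 4-methylumbelliferyl α-D-galactopyranoside hydrolysis: fluorescence (355/448 nm) after sodium carbonate stop, following 30-180 min at 37° C with 2 mM MUGal stock at pH 4.6–4.8. Enzyme source is unchallenged culture supernatant of INVSc1 yeast expressing GLA variants, grown 66-84 h at 30° C.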

B1: 669 (protein)
chain: LDNGLARTPTMGWLHWERFMCNLDCQEEPDSCISEKLFMEMAERMVTEGWKDAGYEYLCIDDCWMAPQRDSEGRLQADPQRFPHGIRQLANHVHSKGLKLGIYADVGNKTCAGFPGSFGYYDIDAQTFADWGVDLLKFDGCYCDSLENLADGYKHMSLALNRTGRPIVYSCEWPLYMWPFQKPNYTEIRQYCNHWRNFADIDDSWASIKSILDWTSRNQERIVDVAGPGGWNDPDMLVIGNFGLSWDQQVTQMALWAIMAASLFMSNDLRAISPQAKALLQDKDVIAINQDPLGKQGYQLRKGDNFEVWERPLSGDAWAVAIINRQEIGGPRSYTIPVASLGKGVACNPACFITQLLPVKRQLGFYNWTSRLKSHINPTGTVLLQLENTMQTSLKDLL
modifications: Synthetic Polypeptide sequence of Variant No. 669 of mature Human GLA
Consider B1, for which the “Relative Activity of GLA Variants After Challenge at pH 7.5” value (from here on “Relative Activity … at pH 7.5”) in data set [1] is listed as “− (<0.5 relative activity to Rd7BB (SEQ ID NO: 44))”. Further, the “Relative Activity of GLA Variants After Challenge at pH 3.5” value (shortened to “Relative Activity … at pH 3.5”) in data set [2] is listed as “− (<0.5 relative activity to Rd7BB (SEQ ID NO: 44))”. Also, the “Relative Activity of GLA Variants After No Challenge (NC)” value in data set [3] was “+ (>0.5 to 1.5 relative activity over Rd7BB (SEQ ID NO: 44))”.

B2: 676 (protein)
chain: LDNGLARTPTMGWLHWERFMCNLDCQEEPDSCISEKLFEEMAERMVTEGWKDAGYEYLCIDDCWMAPQRDSEGRLQADPQRFPHGIRQLANHVHSKGLKLGIYADVGNKTCAGFPGSFGYYDIDAQTFADWGVDLLKFDGCYCDSLENLADGYKHMSLALNRTGRPIVYSCEWPLYMWPFQKPNYTEIRQYCNHWRNFADIDDSWASIKSILDWTSRNQERIVDVAGPGGWNDPDMLVIGNFGLSWDQQVTQMALWAIMAAPLFMSNDLRAISPQAKALLQDKDVIAINQDPLGKQGYQLRKGDNFEVWERPLSGDAWAVAIINRQEIGGPRSYTIPVASLGKGVACNPACFITQLLPVKRQLGFYNATSRLKSHINPTGTVLLQLENTMQTSLKDLL
modifications: Synthetic Polypeptide sequence of Variant No. 676 of mature Human GLA
For the molecule B2, the “Relative Activity … at pH 7.5” value in data set [1] is “+ (>0.5 to 1.5 relative activity over Rd7BB (SEQ ID NO: 44))”. Further, the “Relative Activity … at pH 3.5” value in data set [2] was “+ (>0.5 to 1.5 relative activity over Rd7BB (SEQ ID NO: 44))”. The “Relative Activity of GLA Variants After No Challenge (NC)” value in data set [3] is reported as “+ (>0.5 to 1.5 relative activity over Rd7BB (SEQ ID NO: 44))”.

B3: 670 (protein)
chain: LDNGLARTPTMGWLHWERFMCNLDCQEEPDSCISEKLFMEMAERMVTEGWKDAGYEYLCIDDCWMAPQRDSEGRLQADPQRFPHGIRQLANHVHSKGLKLGIYADVGNKTCAGFPGSFGYYDIDAQTFADWGVDLLKFDGCYCDSLENLADGYKHMSLALNRTGRPIVYSCEWPLYMWPFQKPNYTEIRQYCNHWRNFADIDDSWASIKSILDWTSRNQERIVDVAGPGGWNDPDMLVIGNFGLSWDQQVTQMALWAIMAAPLFMSNDLRAISPQAKALLQDKDVIAINQDPLGKQGYQLRKGDLFEVWERPLSGDAWAVAIINRQEIGGPRSYTIPVASLGKGVACNPACFITQLLPVKRQLGFYNWTSRLKSHINPTGTVLLQLENTMQTSLKDLL
modifications: Synthetic Polypeptide sequence of Variant No. 670 of mature Human GLA
B3: the “Relative Activity … at pH 7.5” value in data set [1] was “+ (>0.5 to 1.5 relative activity over Rd7BB (SEQ ID NO: 44))”. Moreover, in data set [2], the “Relative Activity … at pH 3.5” value is “+ (>0.5 to 1.5 relative activity over Rd7BB (SEQ ID NO: 44))”. Also, in data set [3], the “Relative Activity of GLA Variants After No Challenge (NC)” value is given as “+ (>0.5 to 1.5 relative activity over Rd7BB (SEQ ID NO: 44))”.

B4: 671 (protein)
chain: LDNGLARTPPMGWLHWERFMCNLDCQEEPDSCISEKLFMEMAERMVTEGWKDAGYEYLCIDDCWMAPQRDSEGRLQADPQRFPHGIRQLANHVHSKGLKLGIYADVGNKTCAGFPGSFGYYDIDAQTFADWGVDLLKFDGCYCDSLENLADGYKHMSLALNRTGRPIVYSCEWPLYMWPFQKPNYTEIRQYCNHWRNFADIDDSWASIKSILDWTSRNQERIVDVAGPGGWNDPDMLVIGNFGLSWDQQVTQMALWAIMAAPLFMSNDLRAISPQAKALLQDKDVIAINQDPLGKQGYQLRKGDNFEVWERPLSGDAWAVAIINRQEIGGPRSYTIPVASLGKGVACNPACFITQLLPVKRQLGFYNATSRLKSHINPTGTVLLQLENTMQTSLKDLL
modifications: Synthetic Polypeptide sequence of Variant No. 671 of mature Human GLA
Turning to B4, the “Relative Activity … at pH 7.5” value in data set [1] was “+ (>0.5 to 1.5 relative activity over Rd7BB (SEQ ID NO: 44))”. For the same molecule, in data set [2], the “Relative Activity … at pH 3.5” value was “++ (>1.5 relative activity over Rd7BB (SEQ ID NO: 44))”. For the same molecule, in data set [3], the “Relative Activity of GLA Variants After No Challenge (NC)” value was “++ (>1.5 relative activity over Rd7BB (SEQ ID NO: 44))”.

B5: 674 (protein)
chain: LDNGLARTPTMGWLHWERFMCNLDCQEEPDSCISEKLFMEMAERMVTEGWKDAGYEYLCIDDCWMAPQRDSEGRLQADPQRFPHGIRQLANHVHSKGLKLGIYADVGNKTCAGFPGSFGYYDIDAQTFADWGVDLLKFDGCYCDSLENLADGYKHMSLALNRTGRPIVYSCEWPLYMWPFQKPNYTEIRQYCNHWRNFADIDDSWASIKSILDWTSRNQERIVDVAGPGGWNDHDMLVIGNFGLSWDQQVTQMALWAIMAAPLFMSNDLRAISPQAKALLQDKDVIAINQDPLGKQGYQLRKGDNFEVWERPLSGDAWAVAIINRQEIGGPRSYTIPVASLGKGVACNPACFITQLLPVKRQLGFYNWTSRLKSHINPTGTVLLQLENTMQTSLKDLL
modifications: Synthetic Polypeptide sequence of Variant No. 674 of mature Human GLA
B5: the “Relative Activity … at pH 7.5” value in data set [1] is recorded as “− (<0.5 relative activity to Rd7BB (SEQ ID NO: 44))”. In addition, in data set [2], the “Relative Activity … at pH 3.5” value is “− (<0.5 relative activity to Rd7BB (SEQ ID NO: 44))”. Moreover, in data set [3], the “Relative Activity of GLA Variants After No Challenge (NC)” value was “− (<0.5 relative activity to Rd7BB (SEQ ID NO: 44))”.

B6: 672 (protein)
chain: LDNGLARTPTMGWLHWERFMCNLDCQEEPDSCISEKLFMEMAERMVTEGWKDAGYEYLCIDDCWMAPQRDSEGRLQADPQRFPHGIRQLANHVHSKGLKLGIYADVGNKTCAGFPGSFGYYDIDAQTFADWGVDLLKFDGCYCYSLENLADGYKHMSLALNRTGRPIVYSCEWPLYMWPFQKPNYTEIRQYCNHWRNFADIDDSWASIKSILDWTSRNQERIVDVAGPGGWNDPDMLVIGNFGLSWDQQVTQMALWAIMAAPLFMSNDLRAISPQAKALLQDKDVIAINQDPLGKQGYQLRKGDNFEVWERPLSGDAWAVAIINRQEIGGPRSYTIPVASLGKGVACNPACFITQLLPVKRQLGFYNWTSRLKSHINPTGTVLLQLENTMQTSLKDLL
modifications: Synthetic Polypeptide sequence of Variant No. 672 of mature Human GLA
For B6, in data set [1], the “Relative Activity … at pH 7.5” value was “− (<0.5 relative activity to Rd7BB (SEQ ID NO: 44))”. Moreover, the “Relative Activity … at pH 3.5” value in data set [2] is “+ (>0.5 to 1.5 relative activity over Rd7BB (SEQ ID NO: 44))”. In addition, in data set [3], the “Relative Activity of GLA Variants After No Challenge (NC)” value is given as “+ (>0.5 to 1.5 relative activity over Rd7BB (SEQ ID NO: 44))”.

B7: 673 (protein)
chain: LDNGLARTPTMGWLHWERFMCNLDCQEEPDSCISEKLFMEMAERMVTEGWKDAGYEYLCIDDCWMAPQRDSEGRLQADPQRFPHGIRQLANHVHSKGLKLGIYADVGNKTCAGFPGSFGYYDIDAQTFADWGVDLLKFDGCYCDSLENLADGYKHMSLALNRTGRPIVYSCEWPLYMWPFQKPNYTEIRQYCNHWRNFADIDDSWASIKSILDWTSRNQERIVDVAGPGGWNDPDMLVIGNFGLSWDQQVTQMALWAIMAAPLFMSNDLRAISPQAKALLQDKDVIAINQDPLGKQGYQLRKGDNFEVWERPLSGDAWAVAIINRQEIGGPRSYTIPVASLGKGVACNPACFITQLLPVKRQLGFYNWTSRLKSHIYPTGTVLLQLENTMQTSLKDLL
modifications: Synthetic Polypeptide sequence of Variant No. 673 of mature Human GLA
Take B7: the “Relative Activity … at pH 7.5” value in data set [1] is “− (<0.5 relative activity to Rd7BB (SEQ ID NO: 44))”. The “Relative Activity … at pH 3.5” value in data set [2] is “+ (>0.5 to 1.5 relative activity over Rd7BB (SEQ ID NO: 44))”. Also, in data set [3], the “Relative Activity of GLA Variants After No Challenge (NC)” value is on record as “+ (>0.5 to 1.5 relative activity over Rd7BB (SEQ ID NO: 44))”.

B8: 675 (protein)
chain: LDNGLARTPTMGWLHWERFMCNLDCQEEPDSCISEKLFMEMAERMVTEGWKDAGYEYLCIDDCWVAPQRDSEGRLQADPQRFPHGIRQLANHVHSKGLKLGIYADVGNKTCAGFPGSFGYYDIDAQTFADWGVDLLKFDGCYCDSLENLADGYKHMSLALNRTGRPIVYSCEWPLYMWPFQKPNYTEIRQYCNHWRNFADIDDSWASIKSILDWTSRNQERIVDVAGPGGWNDPDMLVIGNFGLSWDQQVTQMALWAIMAAPLFMSNDLRAISPQAKALLQDKDVIAINQDPLGKQGYQLRKGDNFEVWERPLSGDAWAVAIINRQEIGGPRSYTIPVASLGKGVACNPACFITQLLPVKRQLGFYNWTSRLKSHINPTGTVLLQLENTMQTSLKDLL
modifications: Synthetic Polypeptide sequence of Variant No. 675 of mature Human GLA
As to B8, in data set [1], the “Relative Activity … at pH 7.5” value is recorded as “− (<0.5 relative activity to Rd7BB (SEQ ID NO: 44))”. In data set [2], the “Relative Activity … at pH 3.5” value was “+ (>0.5 to 1.5 relative activity over Rd7BB (SEQ ID NO: 44))”. The “Relative Activity of GLA Variants After No Challenge (NC)” value in data set [3] is recorded as “+ (>0.5 to 1.5 relative activity over Rd7BB (SEQ ID NO: 44))”.
